These results are taken from patent US20250236642A1, “PHARMACEUTICAL COMPOSITION FOR TREATMENT OR PREVENTION OF ADULT T-CELL LEUKEMIA” (NEC Corporation, priority 2022, published 2025).

The target in experiment [1] is HLA-A*02:06 molecule. Kind of experiment: flow cytometry, RA2.6 cells.
The target in experiment [2] is HLA-A*02:01 molecule. Kind of experiment: flow cytometry, T2 cells.
Experiment [3] addresses HLA-A*24:02 molecule. Kind of experiment: flow cytometry, C1R-A24 cells. (A flow cytometer gives signals particle by particle.)
Experiment [4] has as its target HLA-A*02:06 molecule. Kind of experiment: flow cytometry, RA2.6 cells. The source holds these as a separate data set.
Experiment [5] concerns the target HLA-A*02:01 molecule. Kind of experiment: flow cytometry, T2 cells. This is another data set of the same source.
For experiment [6], the target named is HLA-A*24:02 molecule. Kind of experiment: flow cytometry, C1R-A24 cells. This is another data set of the same source.

Where two headings read alike, the source gives them in different places. A value given as a limit tells only on which side of the number the result lay.

With LMITRKSFI [peptide of SEQ ID NO: 17], the -log Kd value in experiment [1] is -4.53.

With LLLFSAAAL [peptide of SEQ ID NO: 1], the -log Kd value in experiment [1] was -4.96.

Consider LHEEHGATL [peptide of SEQ ID NO: 79], for which the -log Kd value in experiment [1] is > -3.

For the molecule SPDEFSNDF [peptide of SEQ ID NO: 73], the -log Kd value in experiment [1] was > -3.

In the case of YFFTVIFSF [peptide of SEQ ID NO: 44], the -log Kd value in experiment [1] is > -4.4.

With ATAPPTAQL [peptide of SEQ ID NO: 25], the -log Kd value in experiment [1] is -6.16.

For the molecule LLNPNRQTI [peptide of SEQ ID NO: 23], in experiment [1], the -log Kd value was -3.53.

Regarding ALQFLIPRL (modifications not checked) [peptide of SEQ ID NO: 22], the -log Kd value in experiment [2] is -5.9; in experiment [3] it was -4.96.

With ALPKIRARV [peptide of SEQ ID NO: 12], the -log Kd value in experiment [1] was -4.78.

With ETLQFIDSM [peptide of SEQ ID NO: 53], the -log Kd value in experiment [1] was -3.37.

With ALAPPTAQL [peptide of SEQ ID NO: 6], in experiment [1], the -log Kd value was -6.41.

For LTEEHGATL [peptide of SEQ ID NO: 42], in experiment [1], the -log Kd value is -4.92.

IALETPVWI (modifications not checked) [peptide of SEQ ID NO: 20]: the -log Kd value is -5.11 in experiment [2] and -5.48 in experiment [3].

For the molecule ILSDHQQSQ [peptide of SEQ ID NO: 70], the -log Kd value in experiment [1] is > -3.

For STGESAQTS [peptide of SEQ ID NO: 71], in experiment [1], the -log Kd value is > -3.

With YLYDPPTTI [peptide of SEQ ID NO: 4], the -log Kd value in experiment [1] was -5.87.

With LMEEHGATL [peptide of SEQ ID NO: 13], the -log Kd value in experiment [1] was -5.68.

Take LVITRKSFI [peptide of SEQ ID NO: 30]: the -log Kd value in experiment [1] was -3.61.

For LAEEHGATL [peptide of SEQ ID NO: 61], the -log Kd value in experiment [1] is -4.5.

With LLITRKSFI [peptide of SEQ ID NO: 16], the -log Kd value in experiment [1] is -4.63.

On to GTHLDAGTV [peptide of SEQ ID NO: 51], for which the -log Kd value in experiment [1] is -3.66.

For CMIVHQGTI [peptide of SEQ ID NO: 36], the -log Kd value in experiment [1] is -4.37.

As for LTITRKSFI [peptide of SEQ ID NO: 45], the -log Kd value in experiment [1] was -3.79.

With VMQIDGVQP [peptide of SEQ ID NO: 67], the -log Kd value in experiment [1] was -3.41.

For the molecule LIITRKSFI [peptide of SEQ ID NO: 29], the -log Kd value in experiment [1] is -3.64.

Regarding YPGWHSTTI [peptide of SEQ ID NO: 52], in experiment [3] (remark: other sources report otherwise), the -log Kd value is -5.66.

Take THLDAGTVE [peptide of SEQ ID NO: 75]: the -log Kd value in experiment [1] was > -3.

Turning to IFADVSSST [peptide of SEQ ID NO: 78], the -log Kd value in experiment [1] was > -3.

With ASPSHMTSM [peptide of SEQ ID NO: 81], in experiment [1], the -log Kd value was > -3.

Take ALQPPCPNL (modifications not checked) [peptide of SEQ ID NO: 31]: the values for the -log Kd value in experiment [2] and in experiment [3] were -5.13 and -5.31, respectively.

Take ISAYRTCWI [peptide of SEQ ID NO: 34]: the -log Kd value in experiment [1] is -3.14.

Regarding LIEEHGATL [peptide of SEQ ID NO: 40], in experiment [1], the -log Kd value was -4.81.

On to VLLQQFQTA [peptide of SEQ ID NO: 15], for which the -log Kd value in experiment [1] was -5.47.

Consider YVYDPPTTI [peptide of SEQ ID NO: 2], for which, in experiment [1], the -log Kd value is -5.55.

As for FSNDFGQSL [peptide of SEQ ID NO: 35], the -log Kd value in experiment [1] is -4.71.

For SLPNEKQTS [peptide of SEQ ID NO: 69], the -log Kd value in experiment [1] is > -3.

As to YTYDPPTTI [peptide of SEQ ID NO: 3], the -log Kd value in experiment [4] was -5.17; in experiment [1], -6.17.

Take KFLEAFHEV [peptide of SEQ ID NO: 8]: in experiment [1], the -log Kd value was -5.81.

In the case of MLPQTPSHL [peptide of SEQ ID NO: 24], the -log Kd value in experiment [1] was -3.96.

As to LLEEHGATL [peptide of SEQ ID NO: 41], the -log Kd value in experiment [1] was -5.3.

For the molecule SSFEFFEEA [peptide of SEQ ID NO: 37], the -log Kd value in experiment [1] is -7.42.

With LVEEHGATL [peptide of SEQ ID NO: 43], the -log Kd value in experiment [1] is -4.86.

Take GYITLGKPH [peptide of SEQ ID NO: 80]: the -log Kd value in experiment [1] was > -3.

On to VMSHHGEKL [peptide of SEQ ID NO: 19], for which the -log Kd value in experiment [1] was -4.3.

With ALRPAPALL [peptide of SEQ ID NO: 26], the -log Kd value in experiment [1] is > -3.37.

As to IQYSSFHNL (modifications not checked) [peptide of SEQ ID NO: 21], the values for the -log Kd value in experiment [2] and in experiment [3] were -5.29 and -6.53, respectively.

On to CIDEHQWQL [peptide of SEQ ID NO: 28], for which, in experiment [1], the -log Kd value was -5.25.

Regarding GSPDEFSND [peptide of SEQ ID NO: 72], the -log Kd value in experiment [1] is > -3.

As for GILSDHQQS [peptide of SEQ ID NO: 74], the -log Kd value in experiment [1] was > -3.

Regarding AQISAYRTC [peptide of SEQ ID NO: 50], the -log Kd value in experiment [1] is -4.09.

As for SLVLTWAAL [peptide of SEQ ID NO: 14], the -log Kd value in experiment [1] was -6.24.

On to CTDEHQWQL [peptide of SEQ ID NO: 39], for which the -log Kd value in experiment [1] is -6.8.

For AQAPPTAQL [peptide of SEQ ID NO: 5], the -log Kd value in experiment [1] is -5.85.

On to LPPARHSTI [peptide of SEQ ID NO: 76], for which, in experiment [1], the -log Kd value was > -3.

ATLAPAVLL [peptide of SEQ ID NO: 10]: the -log Kd value in experiment [1] is -6.12.

Turning to ALPAPHLTL (modifications not checked) [peptide of SEQ ID NO: 18], the -log Kd value in experiment [2] is -5.99; in experiment [3] it was -6.73.

Take LAITRKSFI [peptide of SEQ ID NO: 46]: the -log Kd value in experiment [1] is -3.04.

Consider ARHSTIPLV [peptide of SEQ ID NO: 77], for which, in experiment [1], the -log Kd value is > -3.

In the case of YQLSPPITW (modifications not checked) [peptide of SEQ ID NO: 32], the -log Kd value in experiment [5] is -3.46; in experiment [2], -3.46; in experiment [6], -5.76; in experiment [3], -6.76.

Consider EAIDGYITL [peptide of SEQ ID NO: 47], for which, in experiment [1], the -log Kd value was -4.72.
